Assay: Parallel Artificial Membrane Permeability Assay (PAMPA)
Type: in vitro ADME
Conditions: for Papp: read-out: Pe × 10-6 (cm/s), effective permeability; for permeability compared to norbuprenorphine-Leu-enkephalin: result in words
[1] = 200 μM, pH 7.4, 20% 1-propanol cosolvent, 4 h
[2] = 200 μM, pH 7.4, 20% 1-propanol cosolvent, 4 h, room temperature

CO[C@]12CC[C@@]3(C/C1=C(\C)C(C)(C)C)[C@H]1Cc4ccc(O)c5c4[C@@]3(CCN1C(=O)[C@H](CC(C)C)NC(=O)[C@H](Cc1ccccc1)NC(=O)CNC(=O)CNC(=O)[C@@H](N)Cc1ccc(O)cc1)[C@H]2O5 [Compound 18]
% PAMPA Transport after 4h [1]: 4.3% | %Membrane retention [2]: 30.9% | Papp [2]: 2.13 ×10⁻⁶ cm/s

CO[C@]12CC[C@@]3(CC1=C(C)C(C)(C)C)[C@H]1Cc4ccc(O)c5c4[C@@]3(CCN1C(=O)CCC(=O)N[C@@H](Cc1ccc(O)cc1)C(=O)NCC(=O)NCC(=O)N[C@@H](Cc1ccccc1)C(=O)N[C@@H](CC(C)C)C(=O)O)[C@H]2O5 [Compound 23]
% PAMPA Transport after 4h [1]: 1.2% | %Membrane retention [2]: 0% | Papp [2]: 0.63 ×10⁻⁶ cm/s | permeability compared to norbuprenorphine-Leu-enkephalin: lower permeability

CC(C)C[C@H](NC(=O)[C@H](Cc1ccccc1)NC(=O)CNC(=O)CNC(=O)[C@@H](N)Cc1ccc(O)cc1)C(=O)O [Standard Leu-enkephalin, Leu-enkephalin, reference compound]
% PAMPA Transport after 4h [1]: 0.8% | %Membrane retention [2]: 0% | Papp [2]: 0.38 ×10⁻⁶ cm/s

CSCC[C@H](NC(=O)[C@H](Cc1ccccc1)NC(=O)CNC(=O)CNC(=O)[C@@H](N)Cc1ccc(O)cc1)C(=O)O [Standard Met-enkephalin, Met-enkephalin, reference compound]
% PAMPA Transport after 4h [1]: 0.2% | %Membrane retention [2]: 0% | Papp [2]: 0.09 ×10⁻⁶ cm/s

CC(C)NCC(O)COc1cccc2ccccc12 (centres unmarked) [Propanolol, reference compound]
% PAMPA Transport after 4h [1]: 9.9% | %Membrane retention [2]: 21.8% | Pe × 10-6 (cm/s), effective permeability [2]: 5.23 × 10-6 cm/s

CO[C@]12CC[C@@]3(C/C1=C(/C)C(C)(C)C)[C@H]1Cc4ccc(O)c5c4[C@@]3(CCN1C(=O)[C@H](CC(C)C)NC(=O)[C@H](Cc1ccccc1)NC(=O)CNC(=O)CNC(=O)[C@@H](N)Cc1ccc(O)cc1)[C@H]2O5 [Compound 17]
% PAMPA Transport after 4h [1]: 6.8% | %Membrane retention [2]: 10.3% | Papp [2]: 3.46 ×10⁻⁶ cm/s

CO[C@]12CC[C@@]3(CC1=C(C)C(C)(C)C)[C@H]1Cc4ccc(O)c5c4[C@@]3(CCN1C(=O)c1ccccc1C(=O)N[C@@H](Cc1ccc(O)cc1)C(=O)NCC(=O)NCC(=O)N[C@@H](Cc1ccccc1)C(=O)N[C@@H](CC(C)C)C(=O)O)[C@H]2O5 [Compound 24]
% PAMPA Transport after 4h [1]: 1.9% | %Membrane retention [2]: 0% | Papp [2]: 0.92 ×10⁻⁶ cm/s | permeability compared to norbuprenorphine-Leu-enkephalin: lower permeability

COc1ccc2c3c1O[C@@H]1[C@]34CCN(C(=O)[C@H](CCSC)NC(=O)[C@H](Cc3ccccc3)NC(=O)CNC(=O)CNC(=O)[C@@H](N)Cc3ccc(O)cc3)[C@H](C2)[C@]42CC[C@@]1(OC)/C(=C(/C)C(C)(C)C)C2 [Compound 15]
% PAMPA Transport after 4h [1]: 2.9% | %Membrane retention [2]: 0% | Papp [2]: 1.42 ×10⁻⁶ cm/s

COc1ccc2c3c1O[C@@H]1[C@]34CCN(C(=O)[C@H](CCSC)NC(=O)[C@H](Cc3ccccc3)NC(=O)CNC(=O)CNC(=O)[C@@H](N)Cc3ccc(O)cc3)[C@H](C2)[C@]42CC[C@@]1(OC)/C(=C(\C)C(C)(C)C)C2 [Compound 14]
% PAMPA Transport after 4h [1]: 1.6% | %Membrane retention [2]: 0% | Papp [2]: 0.77 ×10⁻⁶ cm/s

From PMC6934973 (Iranian Journal of Pharmaceutical Research : IJPR, 2019)
